Experiment: yeast display, Sf9 membrane polyspecificity reagent, FACS + sequencing; frameworks hold sequencing errors
Method in brief: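 Synthetic nanobody libraries on Saccharomyces cerevisiae BJ5465 were galactose-induced for 36–48 hours, stained 1 hour at 4 °C with 10% biotinylated, detergent-solubilized Sf9 membrane reagent and enriched on streptavidin microbeads. FACS then separated cells into low and high (top ~1%) gates by anti-HA (expression) and streptavidin (reagent binding) fluorescence. Genes were colony-PCR amplified, MiSeq 2 × 250 sequenced and CDR-length filtered. A clone's polyreactivity label is that of its gate of origin.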

| Sequence | polyreactivity (PSR sort gate) |
| --- | --- |
| QVQLVESGGGLVQAGGSLRLSCAASGSTFYYNAMGWYRQAPGKERELVAAISKRGGTTSYADSVKGRFTISRDNAKNTVFLQMNSLKPEDTAVYYCAAQTYLRQFYRYDWGQGTQVTVSS | high polyreactivity |
| QVQLVESGGGLVQAGGSLRLSCAASGSIFQGNAMGWYRQAPGKERELVAGITRSGGSTYYADSVKGRFTISRDNAKNTVYLQMNSLKPEDTAVYYCAADYSSDGDYWGQGTQVTVSS | low polyreactivity |
| QVQLVESGGGLVQAGGSLRLSCAASGIIFRRYAMGWYRQAPGKERELVAAITGRGGSTYYADSVKGRFTISRDNAKNTVYLQMNSLKPEDTAVYYCAADVYTGDYDSWGQGTQVTVSS | high polyreactivity |
| QVQLVESGGGLVQAGGSLRLSCAASGFIFGSYAMGWYRQAPGKERELVAAISWSGASTYYADSVKGRFTISRDKAKNTVYLQMNSLKPEDTAVYYCAAVSRYGWYDYWGQGTQVTVSS | high polyreactivity |
| QVQLVESGGGIVQAGGSLRLSCPASGLTFIYYAMGWYRQAPGKERELVAAITRGTSTYYADSVKGRFTISRDNAKNTVYLQMNSLKPEDTAVYDCAAKSRRVRTYNYWGQGTQVTVSS | high polyreactivity |
| QVQLVESGGGLVQAGGSLRLSCAASGRIFLGYAMGWYRQAPGKERELVATITWNSDGTYYADSVKGRFTISRDNAKNTVYLQMNSLKPEDTAVYYCATDEGWPWYYYWGQGTQVTVSS | low polyreactivity |
| QVQLVESGGGLVQAGGILRLSCAASGLIFYYYAMGWYRQAPGKERELVAAIRTNYADSVKGRFTISRDNAKNTVYLQMNSLKPEDTAVYYCAAESSHSPTSAFDYWGQGTQVTVSS | low polyreactivity |
| QVQLVESGGGLVQAGGSLRLSCAASGRTFYNYAMGWYRQAPGKERELVATITGRGGRTFYAHSVKGRFTISRDNAKNTVYLQMNSLTPEDTAVYYCAAYGSASPYYTLYVEHDYWGQGTQVTVSS | low polyreactivity |
| QVQLVESGGGLVQAGGSLRLSCAASGSNFYPYAMGWYRQAPGKERELVAGITGGGRTYYADSVKGRFTISRDNAKNTVYLQMNSLKPEDTAVYYCAAVDYVSYYIPFHYEYYWGQGTQVTVSS | low polyreactivity |
| QVQLVETGGGLVQAGGSLRLSCAASGSIFVPYGMGWYRQAPGKERELVAAIRKRGSSTYYADSVKWRFTNSRDNAKNTVYLQMNSLKPEDTAVYYCASTWVSVWYRYDYWGQGTQVTVSS | high polyreactivity |
| QVQLVESGGGLVQAGGSLRLSCAASGRTFPVNGMGWYRQAPGKERELVAAITGGGSTNYADSVKGRFTITRDNAKNTVYLQMNSLKPEDTAVYYCAAGSYSRYLYSLYFDFDYWGQGTQVTVSS | low polyreactivity |
| QDQHVESGVGLVQAGGSLRLSCAASGSIFGNYAMGWYRQAPGKERELVAAIRVSDGRTYDADSVKGRFTISRDNAKNTVYLQMNSLKPEDTAVYYCAAESESSYGPYDYWGQGTQVTVSS | low polyreactivity |
| QLQLVDSGGGLVQAGGSLRLSCADSGRTYGAYTMGWYRKAPGKERELVAAINWSGGDTYYADSVKVRFTISRDNAKNTVYLQMNRLKPEDTAVYYCNAEPRYGTYDYWGQGTQVTVSS | low polyreactivity |
| QVQLVESGGGLVQAGGSLRLSCAASGSIFHDYAMGWYRQAPGKEREMVAAIRWSGGSTYYADSVKGRFTISRDNAKNTVYLQMNSLKREETAVYYCNAVTFGRDNVQLVKFGYWGQGTQVTVSS | low polyreactivity |
| QVQLVESGGGLVPAGGSLRLSCAASGIIFGTYAMGWYRQEPGKERELVAAIRRTGTGTYYADSVKGRFTISRDNAKNTVYLQMNSLKPEDTAVYYCNVVRSYAYDYWGQGTQVTVSS | high polyreactivity |
| QVQLVESGGGLVQAGGSLRLSCAASGYTFPTNAMGWYRQAPGKERELVAAISIDDGITYYADSVKGRFTISRDNAKNTVYLQMNSLKPEDTAVYYCSAEVGIEYEYWGQGTQVTVSS | high polyreactivity |
